Reference: patent publication US20240261333A1, “NOVEL TARGETS FOR ENHANCING ANTI-TUMOR IMMUNITY” (THE BROAD INSTITUTE, INC., priority 2021, published 2024)

Key:
RPL12 (human) = RPL12 (human) (UniProt P30050); experiment: co-IP/MS, anti-FLAG IP of C-FLAG B3GNT2 cell lysate
PDIA6 (human) = PDIA6 (human) (UniProt Q15084); experiment: as above
RPL30 (human) = RPL30 (human) (UniProt P62888); experiment: as above
RPS5 (human) = RPS5 (human) (UniProt P46782); experiment: as above
CKAP4 (human) = CKAP4 (human) (UniProt Q07065); experiment: as above
Chain of CKAP4 (human) (Q07065 whole entry): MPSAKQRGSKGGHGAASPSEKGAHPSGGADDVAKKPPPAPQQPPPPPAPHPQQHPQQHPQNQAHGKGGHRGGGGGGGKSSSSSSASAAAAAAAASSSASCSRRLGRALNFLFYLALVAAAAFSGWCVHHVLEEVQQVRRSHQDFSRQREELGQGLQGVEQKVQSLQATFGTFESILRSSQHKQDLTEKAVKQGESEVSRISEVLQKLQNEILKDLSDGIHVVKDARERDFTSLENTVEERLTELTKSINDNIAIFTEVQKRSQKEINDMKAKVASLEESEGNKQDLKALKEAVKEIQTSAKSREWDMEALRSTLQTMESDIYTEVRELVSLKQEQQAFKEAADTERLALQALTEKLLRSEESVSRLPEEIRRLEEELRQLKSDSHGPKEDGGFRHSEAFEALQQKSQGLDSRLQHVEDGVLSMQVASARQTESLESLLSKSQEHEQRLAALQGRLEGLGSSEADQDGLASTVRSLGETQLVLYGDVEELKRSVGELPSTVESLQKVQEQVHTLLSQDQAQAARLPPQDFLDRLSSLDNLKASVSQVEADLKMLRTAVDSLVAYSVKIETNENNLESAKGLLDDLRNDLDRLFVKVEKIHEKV

PRDX1 (human) = PRDX1 (human) (UniProt Q06830); experiment: as above
Chain of PRDX1 (human) (Q06830 2-199 limits assumed): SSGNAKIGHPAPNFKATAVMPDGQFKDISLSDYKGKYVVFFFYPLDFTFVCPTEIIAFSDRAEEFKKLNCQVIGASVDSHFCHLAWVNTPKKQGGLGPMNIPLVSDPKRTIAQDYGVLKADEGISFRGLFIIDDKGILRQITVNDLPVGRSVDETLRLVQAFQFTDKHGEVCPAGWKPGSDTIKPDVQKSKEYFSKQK

SLC25A4 (human) = SLC25A4 (human) (UniProt P12235); experiment: as above
ERLIN2 (human) = ERLIN2 (human) (UniProt O94905); experiment: as above
Chain of ERLIN2 (human) (O94905 whole entry): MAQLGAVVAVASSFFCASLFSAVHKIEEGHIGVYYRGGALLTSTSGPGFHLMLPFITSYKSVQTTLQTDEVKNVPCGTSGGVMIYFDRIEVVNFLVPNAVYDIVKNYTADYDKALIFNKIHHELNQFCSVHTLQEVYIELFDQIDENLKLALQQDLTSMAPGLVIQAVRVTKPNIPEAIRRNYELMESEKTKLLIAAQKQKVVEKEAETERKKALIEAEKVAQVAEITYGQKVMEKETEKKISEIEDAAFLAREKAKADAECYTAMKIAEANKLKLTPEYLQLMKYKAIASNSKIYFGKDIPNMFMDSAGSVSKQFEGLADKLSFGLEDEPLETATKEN

ATP1A1 (human) = ATP1A1 (human) (UniProt P05023); experiment: as above
RPL23A (human) = RPL23A (human) (UniProt P62750); experiment: as above
RPLPO (human) = RPLPO (human) (UniProt P05388); experiment: as above
SQSTM1 (human) = SQSTM1 (human) (UniProt Q13501); experiment: as above
PRDX2 (human) = PRDX2 (human) (UniProt P32119); experiment: as above
Chain of PRDX2 (human) (P32119 2-198 limits assumed): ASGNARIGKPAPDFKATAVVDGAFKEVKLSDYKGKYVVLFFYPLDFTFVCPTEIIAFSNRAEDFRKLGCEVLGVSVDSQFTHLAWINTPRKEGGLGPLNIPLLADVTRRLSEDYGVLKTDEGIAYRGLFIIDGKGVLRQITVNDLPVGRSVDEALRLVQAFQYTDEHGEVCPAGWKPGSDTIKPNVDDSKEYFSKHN

GCN1 (human) = GCN1 (human) (UniProt Q92616); experiment: as above
RPS3A (human) = RPS3A (human) (UniProt P61247); experiment: as above
CASP14 (human) = CASP14 (human) (UniProt P31944); experiment: as above
ERLIN1 (human) = ERLIN1 (human) (UniProt O75477); experiment: as above
Chain of ERLIN1 (human) (O75477 whole entry): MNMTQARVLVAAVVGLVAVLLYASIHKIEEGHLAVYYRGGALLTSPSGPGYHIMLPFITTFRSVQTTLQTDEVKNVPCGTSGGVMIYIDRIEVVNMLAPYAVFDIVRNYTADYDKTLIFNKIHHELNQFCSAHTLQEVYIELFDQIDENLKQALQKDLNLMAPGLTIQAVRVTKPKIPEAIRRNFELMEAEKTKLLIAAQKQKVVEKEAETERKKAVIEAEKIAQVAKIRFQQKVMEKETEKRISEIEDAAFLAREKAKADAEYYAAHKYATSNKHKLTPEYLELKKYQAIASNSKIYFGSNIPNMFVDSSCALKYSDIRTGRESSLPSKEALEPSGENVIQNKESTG

FAM3C (human) = FAM3C (human) (UniProt Q92520); experiment: as above
Chain of FAM3C (human) (Q92520 25-227 limits assumed): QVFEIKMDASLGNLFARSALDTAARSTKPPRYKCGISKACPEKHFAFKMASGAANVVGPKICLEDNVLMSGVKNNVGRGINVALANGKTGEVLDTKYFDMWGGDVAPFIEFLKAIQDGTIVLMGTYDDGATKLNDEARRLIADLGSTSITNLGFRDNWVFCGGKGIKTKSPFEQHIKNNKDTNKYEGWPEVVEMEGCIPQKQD

DNAJA1 (human) = DNAJA1 (human) (UniProt P31689); experiment: as above
CAPZB (human) = CAPZB (human) (UniProt P47756); experiment: as above
HNRNPU = HNRNPU (UniProt Q00839); experiment: co-IP, IgG control, N-FLAG B3GNT2 cell lysate, mass spectrometry
Chain of HNRNPU (Q00839 2-825 limits assumed): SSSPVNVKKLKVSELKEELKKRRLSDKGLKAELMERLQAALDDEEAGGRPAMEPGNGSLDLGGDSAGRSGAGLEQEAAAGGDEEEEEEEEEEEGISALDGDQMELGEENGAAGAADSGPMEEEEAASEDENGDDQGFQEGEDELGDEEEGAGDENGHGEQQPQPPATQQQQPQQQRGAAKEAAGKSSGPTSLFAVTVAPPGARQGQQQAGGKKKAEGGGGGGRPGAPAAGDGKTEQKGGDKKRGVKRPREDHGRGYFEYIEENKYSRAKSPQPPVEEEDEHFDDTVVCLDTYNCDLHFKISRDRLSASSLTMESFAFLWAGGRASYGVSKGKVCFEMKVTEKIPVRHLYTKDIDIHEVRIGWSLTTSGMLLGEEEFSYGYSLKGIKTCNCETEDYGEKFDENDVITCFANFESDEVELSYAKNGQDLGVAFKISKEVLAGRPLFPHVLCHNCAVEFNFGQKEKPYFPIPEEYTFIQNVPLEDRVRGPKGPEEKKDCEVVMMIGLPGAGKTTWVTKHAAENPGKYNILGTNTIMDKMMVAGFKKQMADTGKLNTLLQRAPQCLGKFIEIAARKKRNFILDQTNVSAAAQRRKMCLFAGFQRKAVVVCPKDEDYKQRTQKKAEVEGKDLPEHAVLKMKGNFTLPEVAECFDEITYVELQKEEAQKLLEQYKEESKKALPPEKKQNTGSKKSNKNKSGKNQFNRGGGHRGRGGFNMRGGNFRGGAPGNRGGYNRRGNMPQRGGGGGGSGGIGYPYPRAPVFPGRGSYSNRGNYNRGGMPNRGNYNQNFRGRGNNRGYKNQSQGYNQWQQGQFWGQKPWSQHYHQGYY

RPS18 = RPS18 (UniProt P62269); experiment: as above
TXN = TXN (UniProt P10599); experiment: as above
RPS16 = RPS16 (UniProt P62249); experiment: as above
LIMA1 = LIMA1 (UniProt Q9UHB6); experiment: as above
RPL19 = RPL19 (UniProt P84098); experiment: as above
RPL37A = RPL37A (UniProt P61513); experiment: as above
SSRP1 = SSRP1 (UniProt Q08945); experiment: as above
Chain of SSRP1 (Q08945 2-709 limits assumed): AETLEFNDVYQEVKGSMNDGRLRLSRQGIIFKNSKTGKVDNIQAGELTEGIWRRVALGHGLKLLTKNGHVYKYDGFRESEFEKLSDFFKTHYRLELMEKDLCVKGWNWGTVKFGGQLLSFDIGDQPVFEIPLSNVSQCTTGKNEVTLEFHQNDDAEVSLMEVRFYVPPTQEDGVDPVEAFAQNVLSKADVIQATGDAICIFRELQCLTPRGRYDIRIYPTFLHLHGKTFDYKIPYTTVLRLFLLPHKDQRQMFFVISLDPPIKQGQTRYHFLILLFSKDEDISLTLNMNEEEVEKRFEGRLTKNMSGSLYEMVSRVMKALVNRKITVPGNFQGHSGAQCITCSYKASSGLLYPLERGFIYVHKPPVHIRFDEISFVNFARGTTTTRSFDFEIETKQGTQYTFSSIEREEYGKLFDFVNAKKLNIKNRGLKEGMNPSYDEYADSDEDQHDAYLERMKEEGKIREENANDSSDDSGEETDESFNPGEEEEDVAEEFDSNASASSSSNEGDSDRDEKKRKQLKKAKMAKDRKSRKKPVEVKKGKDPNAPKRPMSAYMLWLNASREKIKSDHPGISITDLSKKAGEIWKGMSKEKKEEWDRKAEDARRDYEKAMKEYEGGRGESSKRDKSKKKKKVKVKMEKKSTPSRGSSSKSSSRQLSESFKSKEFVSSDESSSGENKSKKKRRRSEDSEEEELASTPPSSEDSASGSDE

RPS19 = RPS19 (UniProt P39019); experiment: as above
TMEM59 = TMEM59 (UniProt Q9BXS4); experiment: as above
CDSN = CDSN (UniProt Q15517); experiment: as above
Chain of CDSN (Q15517 33-529 limits assumed): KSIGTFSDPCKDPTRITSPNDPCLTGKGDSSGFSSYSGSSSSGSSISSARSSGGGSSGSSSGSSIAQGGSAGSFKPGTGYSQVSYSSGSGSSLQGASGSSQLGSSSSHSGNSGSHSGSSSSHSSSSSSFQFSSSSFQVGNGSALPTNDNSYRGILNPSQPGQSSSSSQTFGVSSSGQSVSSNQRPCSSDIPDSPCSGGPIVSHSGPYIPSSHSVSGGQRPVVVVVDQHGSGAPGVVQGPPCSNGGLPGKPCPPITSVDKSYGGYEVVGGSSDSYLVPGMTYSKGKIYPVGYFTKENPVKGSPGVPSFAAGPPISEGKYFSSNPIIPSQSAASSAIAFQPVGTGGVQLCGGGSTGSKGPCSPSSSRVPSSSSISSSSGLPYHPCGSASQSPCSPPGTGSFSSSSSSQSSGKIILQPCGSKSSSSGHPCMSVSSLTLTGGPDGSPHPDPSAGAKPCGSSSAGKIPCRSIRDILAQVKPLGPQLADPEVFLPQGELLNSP

POF1B = POF1B (UniProt Q8WVV4); experiment: as above
TNKS1BP1 = TNKS1BP1 (UniProt Q9C0C2); experiment: as above
CFL1 = CFL1 (UniProt P23528); experiment: as above
Chain of CFL1 (P23528 2-166 limits assumed): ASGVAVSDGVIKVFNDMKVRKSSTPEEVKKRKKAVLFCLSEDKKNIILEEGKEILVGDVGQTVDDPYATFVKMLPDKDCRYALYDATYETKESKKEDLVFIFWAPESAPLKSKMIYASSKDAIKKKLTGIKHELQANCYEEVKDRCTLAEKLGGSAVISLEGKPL

SRSF1 = SRSF1 (UniProt Q07955); experiment: as above
HIST1H1E = HIST1H1E (UniProt P10412); experiment: as above
MTDH = MTDH (UniProt Q86UE4); experiment: as above
MTCH2 = MTCH2 (UniProt Q9Y6C9); experiment: as above
DNAJA2 = DNAJA2 (UniProt O60884); experiment: as above
Chain of DNAJA2 (O60884 1-409 limits assumed): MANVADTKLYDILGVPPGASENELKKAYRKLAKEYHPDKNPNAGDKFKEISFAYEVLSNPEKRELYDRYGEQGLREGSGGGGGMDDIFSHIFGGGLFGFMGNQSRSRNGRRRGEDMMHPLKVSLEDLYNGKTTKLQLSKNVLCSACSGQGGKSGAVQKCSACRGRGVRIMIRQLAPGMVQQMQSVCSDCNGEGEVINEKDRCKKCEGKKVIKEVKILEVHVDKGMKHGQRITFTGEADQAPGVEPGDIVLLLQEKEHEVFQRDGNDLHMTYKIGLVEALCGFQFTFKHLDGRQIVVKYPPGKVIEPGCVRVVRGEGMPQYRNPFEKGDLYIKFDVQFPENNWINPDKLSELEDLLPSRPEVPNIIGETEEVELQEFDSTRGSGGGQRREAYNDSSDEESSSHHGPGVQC

Chain of PDIA6 (human) (Q15084 20-440 limits assumed): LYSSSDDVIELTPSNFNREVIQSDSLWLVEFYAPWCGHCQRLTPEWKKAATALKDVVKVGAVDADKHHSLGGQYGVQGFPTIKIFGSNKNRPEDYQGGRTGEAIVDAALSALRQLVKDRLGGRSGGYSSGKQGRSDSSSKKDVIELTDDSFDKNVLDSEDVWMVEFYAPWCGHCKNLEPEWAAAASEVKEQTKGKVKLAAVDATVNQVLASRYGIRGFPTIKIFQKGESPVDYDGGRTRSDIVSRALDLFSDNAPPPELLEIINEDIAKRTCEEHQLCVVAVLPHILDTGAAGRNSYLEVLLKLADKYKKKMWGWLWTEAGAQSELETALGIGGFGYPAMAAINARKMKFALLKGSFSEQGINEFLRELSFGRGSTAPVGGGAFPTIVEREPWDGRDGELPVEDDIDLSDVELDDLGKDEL

C-terminal FLAG tagged B3GNT2 (from UniProt Q9NY97 1-397) (enzyme)
co-IP mass spectrometry count (RPL12 (human)): 11
co-IP mass spectrometry count (PDIA6 (human)): 14
co-IP mass spectrometry count (RPL30 (human)): 14
co-IP mass spectrometry count (RPS5 (human)): 6
co-IP mass spectrometry count (CKAP4 (human)): 14
co-IP mass spectrometry count (PRDX1 (human)): 6
co-IP mass spectrometry count (SLC25A4 (human)): 14
co-IP mass spectrometry count (ERLIN2 (human)): 9
co-IP mass spectrometry count (ATP1A1 (human)): 12
co-IP mass spectrometry count (RPL23A (human)): 10
co-IP mass spectrometry count (RPLPO (human)): 10
co-IP mass spectrometry count (SQSTM1 (human)): 43
co-IP mass spectrometry count (PRDX2 (human)): 5
co-IP mass spectrometry count (GCN1 (human)): 4
co-IP mass spectrometry count (RPS3A (human)): 29
co-IP mass spectrometry count (CASP14 (human)): 9
co-IP mass spectrometry count (ERLIN1 (human)): 9
co-IP mass spectrometry count (FAM3C (human)): 23
co-IP mass spectrometry count (DNAJA1 (human)): 10
co-IP mass spectrometry count (CAPZB (human)): 5

IgG control (Millipore Sigma 12-371) (antibody)
co-IP mass spectrometry count (HNRNPU): 2
co-IP mass spectrometry count (RPS18): 11
co-IP mass spectrometry count (TXN): 3
co-IP mass spectrometry count (RPS16): 10
co-IP mass spectrometry count (LIMA1): 3
co-IP mass spectrometry count (RPL19): 2
co-IP mass spectrometry count (RPL37A): 4
co-IP mass spectrometry count (SSRP1): 0
co-IP mass spectrometry count (RPS19): 5
co-IP mass spectrometry count (TMEM59): 0
co-IP mass spectrometry count (CDSN): 0
co-IP mass spectrometry count (POF1B): 0
co-IP mass spectrometry count (TNKS1BP1): 4
co-IP mass spectrometry count (CFL1): 3
co-IP mass spectrometry count (SRSF1): 5
co-IP mass spectrometry count (HIST1H1E): 2
co-IP mass spectrometry count (MTDH): 0
co-IP mass spectrometry count (MTCH2): 0
co-IP mass spectrometry count (DNAJA2): 0
